The values below come from patent publication US11608490B2, “Composition for enhancing hair growth-inducing ability of adipose stem cells comprising udenafil as active ingredient” (INDUSTRY-ACADEMIC COOPERATION FOUNDATION, YONSEI UNIVERSITY, priority 2018, dated 2023).

Assay [1] deals with human adipose stem cells. The assay can be described thus: Cell growth assay (live cell number, trypan blue). The note with it: 7 days; for proliferation of the adipose stem cells (live cell number): IL-4 or IL-12B 100 ng/ml, FIG. 7(A). Type of assay: cell-based. The protocol:
(§1) Human adipose stem cells were isolated via liposuction of subcutaneous fat, as described in a previous study: Briefly, the fat was washed with phosphate-buffered saline (PBS), 0.075% collagenase was added, and the mixture was incubated for 45 minutes at 37° C. with gentle shaking. After centrifugation, the pellet was filtered through a 100 am nylon mesh. Then, the cells were cultured with an essential medium containing alpha Minimum Essential Medium (α-MEM) (Hyclone, Logan, Utah, USA), 10% fetal bovine serum (FBS) (Gibco, Carlsbad, Calif., USA), and 1% antibiotics (Gibco) for three passages. Then, the medium was changed to contain α-MEM, 10% FBS, and 1% penicillin/streptomycin (Gibco), and the cells were cultured for four passages. The adipose stem cells at passages 5 to 7 were used for all experiments. Characterization of the adipose stem cells was performed using flow cytometry. The adipose stem cells were positive for CD44, CD73, CD90, CD105, human leukocyte antigen (HLA)-I, and podocalyxin-like protein (PODXL), and were negative for hematopoietic markers such as CD34 and CD45. A multipotent differentiation potential was examined, as described in a previous study; as a result, the adipose stem cells could be differentiated into adipocytes, osteocytes, and chondrocytes. The adipose stem cells were maintained at 37° C. in a humidified 5% CO2 incubator.
For cell growth assay, the adipose stem cells were seeded in 12-well plates, with 5×10^3 cells/well, treated with udenafil (0.1, 0.5, or 1 μM), and incubated for 7 days. The adipose stem cells were also seeded in 12-well plates, with 1×10^4 cells/well, treated with a synthetic peptide of IL-4 or IL-12B (100 ng/ml), and incubated for 7 days. The cells were then trypsinized, stained with trypan blue (Sigma-Aldrich, MO, USA), and counted each day using a hemocytometer.

Assay [2] relates to IL-12B mRNA. The assay can be described thus: qPCR of IL-12B expression level in udenafil-treated adipose stem cells. The class given is cell-based. To be noted: adipose stem cells treated with 1 μM udenafil for 3 to 4 days, versus non-udenafil-treated adipose stem cells (Control); FIG. 3. The protocol: (§2) First, adipose stem cells were preconditioned with udenafil to prepare stimulated adipose stem cells. Adipose stem cells were inoculated on a […] and cultured. The following day, 1 μM udenafil was added to the culture medium and additional culture was performed for 3 to 4 days. Subsequently, adherent cultured adipose stem cells were detached with trypsin, and then obtained by centrifugation. The obtained adipose stem cells were prepared by being mixed with 100 μl of PBS.
(§3) Specifically, as performed in Example <1-1>, adipose stem cells were treated with udenafil and cultured. After completion of the culture, the cells were obtained and RNA was extracted from the cells by treatment with TRIZOL™ (Invitrogen, NY, USA). Using the extracted RNA as a template, cDNA was synthesized through RT-PCR using oligodT and HELIXCRIPT™ Thermo Reverse Transcription System (NANOHELIX, WI, USA). The synthesized cDNA and BrightGreen qPCR master mix-ROX (abm, NY, US) were added to 96-well qPCR assay Kit for identifying growth factors [RT^2 First Strand (DNA Synthesis Kit (QIAGEN, MD, USA)], to perform a qPCR reaction. The results obtained by performing the qPCR reaction were analyzed using a program which corresponds to the RT^2 First Strand cDNA Synthesis Kit and is provided by QIAGEN, and IL-4 and IL-12B expression levels in the udenafil-treated adipose stem cells were respectively identified.
For orientation: Quantitative PCR measures a nucleic acid by following its amplification.

For assay [3], the system named is human adipose stem cells. The assay can be described thus: Transwell migration assay. The class given is cell-based. To be noted: migration 1 day; for migration of the adipose stem cells, transwell migration assay: IL-4 or IL-12B treatment for 3 days, FIG. 7 (B to E). The protocol: as §1
The adipose stem cells were seeded into 60 mm plates and treated with udenafil IL-4, or IL-12B for 3 days. The adipose stem cells starved for 1 day (1.5×10^4cells/well) were suspended in a serum-free medium and seeded on the upper side of transwell membrane inserts (BD Falcon, CA, USA), which was pre-coated with MATRIGEL™ (1/60 dilution, BD MATRIGEL™ matrix, CA, USA). The normal serum With FBS was added in the lower side thereof as a chemoattractant. […] The inserts were stained with […] solution (Sigma-Aldrich) for 20 minutes, and the cell number was analyzed under a ZEISS™ Observer D1 microscope. Multiple images (15 to 20) were acquired per insert, and the average cell counts were calculated.

Assay [4] concerns IL-4 mRNA. The assay can be described thus: qPCR of IL-4 expression level in udenafil-treated adipose stem cells. Type of assay: cell-based. To be noted: adipose stem cells treated with 1 μM udenafil for 3 to 4 days, versus non-udenafil-treated adipose stem cells (Control); FIG. 3. The protocol: as §2, §3
Assay [5] relates to human adipose stem cells. The assay is described as follows: Tube formation assay using MATRIGEL
To be noted: after 16 hours; FIG. 6(E). The class given is cell-based. The protocol:
as §1, with “chondrocytes. […]” for “chondrocytes.”, “number of tubes was analyzed under” for “adipose stem cells were maintained at 37° C. in”, “ZEISS™ Observer D1 microscope.” for “humidified 5% CO2 incubator.”

For assay [6], the system named is human adipose stem cells. The assay can be described thus: Scratch wound-healing assay. Type of assay: cell-based. The note with it: for migration of the adipose stem cells, scratch wound-healing assay: IL-4 or IL-12B in serum-free medium for 3 days, FIG. 7 (B to E). The protocol:
as §1
The adipose stem cells were seeded into 6-well plates and cultured to confluence. A sterile 1 ml pipette tip was used to scratch the cell monolayer. The cultures were then washed with PBS to remove de-plated cells, and the cells were again cultured with udenafil, or IL-4, and IL-12B in a serum-free medium for 3 days. Cell migration into the scratched area (wound closure) was visualized using a ZEISS™ Observer D1 microscope. Multiple images were acquired per well, and the average cell number within the wound was monitored over 3 days.

Assay [7] relates to vibrissal hair follicle cells. The assay is described as follows: Vibrissal hair follicle culture, length of hair grown. The class given is cell-based, mouse. The note with it: 5 ng/ml or 20 ng/ml, 3 days culture, versus non-treated control; FIG. 5. The protocol: In addition, the vibrissal hair follicle of 5-week-old C57b1/6 mice was dissected to obtain hair follicle cells, and the hair follicle cells were transferred to 48-well plates. Then, treatment with 5 ng/ml or 20 ng/ml of an IL-4 peptide or an IL-12B peptide was performed and culture was performed for 3 days. After completion of the culture, the hair follicle tissue was photographed and a length of hair grown therefrom was measured.

Assay [8] relates to dermal papilla cells (DP cells). The assay is described as follows: Growth of dermal papilla cells after treatment with IL-4 or IL-12B. The class given is cell-based. The note with it: FIG. 8.
In assay [9] the test system is C3H mice. The assay can be described thus: Hair growth effect of IL-4 or IL-12B peptide applied to dorsum of mice. The class given is in vivo, mouse. The note with it: 100 ng/ml applied to dorsum once a day for 13 to 14 days, FIG. 4; for maturation of hair follicle tissue: H&E staining. The protocol:
Specifically, the dorsal hair of 6-week-old C3H mice was completely removed, and 100 ng/ml of an IL-4 peptide or an IL-12B peptide was applied to the dorsum of the mice once a day. It was identified whether the hair was growing while applying the IL-4 peptide or IL-12B peptide for 13 to 14 days. Then, a photograph was taken and the dorsal skin tissue was obtained.

As for `CCCOc1ccc(S(=O)(=O)NCCC2CCCN2C)cc1-c1nc(=O)c2c([nH]1)c(CCC)nn2C` (centres unmarked) [udenafil], the “growth of adipose stem cells (live cell number)” value in assay [1] (udenafil 0.1, 0.5 or 1 μM, FIG. 6(A)) was “increases growth of adipose stem cells in a time- and dose-dependent manner”. Besides, the “IL-12B mRNA expression level” value in assay [2] is “about 6 fold”. The “ASC migration, transwell migration assay” value in assay [3] (udenafil treatment for 3 days, FIG. 6 (B to D)) was “increases ASC migration in both assays in a dose-dependent manner”. For the same molecule, in assay [4], the “IL-4 mRNA expression level” value is listed as “about 4 fold”. Also, the “number of nascent tubes (tube-forming activity)” value in [5] is listed as “increases the number of nascent tubes”. In [6] (udenafil in serum-free medium for 3 days, FIG. 6 (B to D)), the “ASC migration, scratch wound-healing assay” value is reported as “increases ASC migration in both assays in a dose-dependent manner”.

B1: IL-4 peptide: cytokine whose expression is increased in udenafil-treated adipose stem cells; called IL-4 peptide, synthetic peptide of IL-4, IL-4 protein (protein, UniProt P05112 25-153, looked up)
Interleukin-4: HKCDITLQEIIKTLNSLTEQKTLCTELTVTDIFAASKNTTEKETFCRAATVLRQFYSHHEKDTRCLGATAQQFHRHKQLIRFLKRLDRNLWGLAGLNSCPVKEANQSTLENFLERLKTIMREKYSKCSS
Consider B1, for which the “proliferation of the adipose stem cells (live cell number)” value in assay [1] is given as “not”. Moreover, the “length of hair grown from the hair follicle cells” value in assay [7] is “longer than that of the non-treated control”. For the same molecule, the “growth of the DP cells” value in [8] is on record as “increased growth of the DP cells”. Besides, in assay [3], the “migration of the adipose stem cells, transwell migration assay” value was “increase migration of the adipose stem cells in a dose-dependent manner”. In assay [9], the hair growth effect result is reported as “increased hair growth effect” and the “maturation of hair follicle tissue” value is “significantly maturated”. Moreover, the “migration of the adipose stem cells, scratch wound-healing assay” value in assay [6] was “increase migration of the adipose stem cells in a dose-dependent manner”.

B2: IL-12B peptide: cytokine whose expression is increased in udenafil-treated adipose stem cells; called IL-12B peptide, synthetic peptide of IL-12B, IL-12B protein (protein, UniProt P29460 23-328, looked up)
Interleukin-12 subunit beta: IWELKKDVYVVELDWYPDAPGEMVVLTCDTPEEDGITWTLDQSSEVLGSGKTLTIQVKEFGDAGQYTCHKGGEVLSHSLLLLHKKEDGIWSTDILKDQKEPKNKTFLRCEAKNYSGRFTCWWLTTISTDLTFSVKSSRGSSDPQGVTCGAATLSAERVRGDNKEYEYSVECQEDSACPAAEESLPIEVMVDAVHKLKYENYTSSFFIRDIIKPDPPKNLQLKPLKNSRQVEVSWEYPDTWSTPHSYFSLTFCVQVQGKSKREKKDRVFTDKTSATVICRKNASISVRAQDRYYSSSWSEWASVPCS
As for B2, the “proliferation of the adipose stem cells (live cell number)” value in assay [1] is “increases proliferation of the adipose stem cells in a time- and dose-dependent manner”. For the same molecule, in [7], the “length of hair grown from the hair follicle cells” value is given as “longer than that of the non-treated control”. Besides, the “growth of the DP cells” value in [8] was “increased growth of the DP cells”. The “migration of the adipose stem cells, transwell migration assay” value in [3] is reported as “increase migration of the adipose stem cells in a dose-dependent manner”. Further, in assay [9], the hair growth effect result is “increased hair growth effect” and the “maturation of hair follicle tissue” value is on record as “significantly maturated”. Besides, in [6], the “migration of the adipose stem cells, scratch wound-healing assay” value is given as “increase migration of the adipose stem cells in a dose-dependent manner”.
